In patent US20120141441:

System: Cre recombinase (bacteriophage P1 ?)
Assay: cell_activity
Conditions: excision of reprogramming cassette in iPSC; typically 50% or more of clones; verified by Southern blot and PCR

**Q.** Which activity (% clones with EGFP loss) does the source give for “loxP sites flanking reprogramming cassette (p4FLR)” here?
**A.** > 50
